Drawing on publication PMC11117474, this text covers Kd, dH and stoichiometry N for three molecules.

Experiment [1] has as its target RYBP (RING1A and YY1 binding protein) (UniProt Q8N488). The experiment is described as follows: other fluorescence titration; ARM-PKP1 0-20 uM added to fixed RYBP 4.6 uM; 25 °C; 20 mM Tris pH 7.5, 5 mM TCEP, 150 mM NaCl; fluorescence at 330 nm; fit with ligand depletion.
The target in the next experiment is NUPR1 (Homo sapiens) (UniProt O60356). The note with it: cited from earlier work.
Experiment [2] concerns the target armadillo-repeat domain of plakophilin 1 (ARM-PKP1). The experiment is described as follows: ITC; RYBP (100 uM) in the syringe titrated into ARM-PKP1 (10 uM) in the cell; 25 °C; 20 mM Tris pH 7.5, 5 mM TCEP, 150 mM NaCl; single binding site model. A general note: In ITC the heat of successive injections is recorded.

A word on the Kd: it is the constant that tells how readily two partners part at equilibrium. A word on the stoichiometry N: it is a count of units in the complex or per binding partner.

Chain of UniProt O60356 (O60356 whole entry, the tested form may be a part): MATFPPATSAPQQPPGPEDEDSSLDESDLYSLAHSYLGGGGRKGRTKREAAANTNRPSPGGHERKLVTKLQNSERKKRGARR

On to “armadillo-repeat domain of plakophilin 1 (ARM-PKP1) (domain or fragment)”, for which the Kd in experiment [1] came to 9 µM.

As to “Plakophilin 1 ARM domain (from UniProt Q13835)”, in the experiment with NUPR1 (Homo sapiens), the Kd is 10 µM.

B1: RYBP (RING1A and YY1 binding protein) (natural protein)
chain: MTMGDKKSPTRPKRQAKPAADEGFWDCSVCTFRNSAEAFKCSICDVRKGTSTRKPRINSQLVAQQVAQQYATPPPPKKEKKEKVEKQDKEKPEKDKEISPSVTKKNTNKKTKPKSDILKDPPSEANSIQSANATTKTSETNHTSRPRLKNVDRSTAQQLAVTVGNVTVIITDFKEKTRSSSTSSSTVTSSAGSEQQNQSSSGSESTDKGSSRSSTPKGDMSAVNDESF
On to B1, for which, in experiment [2], the Kd is 12 µM, the dH was -11.9 kcal/mol and the stoichiometry N was 1.
